This passage reports self-cleavage results from the RNAGym collection of RNA variant scans (doi:10.7554/elife.80360).

B1: CPEB3 Ribozyme (parent)
chain: GGGGGCCACAGCAGAAGCGUUCACGUCGCGGCCCCUGUCAGAUUCUGGUGAAUCUGCGAAUUCUGCUGU

The data set covers variants of B1. The data set can be described thus: self-cleavage, relative activity (ratio to wild type); higher = more cleavage; co-transcriptional.
Take GGGGGCCACAGCAGAAGCGUUCACGUCGCGGCCCCUGUCCGAUUCUCGUGAAUCUGCGAAUUCUGCUGU: the self-cleavage came to 0.794. On to GGGGGCCACAGCAGAAGCGUUCACGUCGCGGCCCCUGUUAGAAUCUGGUGAAUCUGCGAAUUCUGCUGU, for which the self-cleavage turned out to be 0.49.

Turning to GGGGGCCACAGCAGAAGCGUUCACGUCGCGGCCCCUGUUAGAGUCUGGUGAAUCUGCGAAUUCUGCUGU, the self-cleavage was 0.405. As for GGGGGCCACAGCAGAAGCGUUCACGUCGCGGCCCCUGUCGGAUUCUGGUGAUUCUGCGAAUUCUGCUGU, the self-cleavage was determined as 0.851.

As for GGGGGCCACAGCAGAAGCGUUCACGUCGCGGCCCCUGUCGGAUUCUGGUGAGUCUGCGAAUUCUGCUGU, the self-cleavage worked out at 0.903. As to GGGGGCCACAGCAGAAGCGUUCACGUCGCGGCCCCUGUCGGAUUCUGGUGACUCUGCGAAUUCUGCUGU, the self-cleavage was found to be 0.87. As for GGGGGCCACAGCAGAAGCGUUCACGUCGCGGCCCCUGUUAGAUUCUGGCGAAUCUGCGAAUUCUGCUGU, the figure is 0.927; as for GGGGGCCACAGCAGAAGCGUUCACGUCGCGGCCCCUGUCGGAUUCUGGUGAAUAUGCGAAUUCUGCUGU, 0.701. On to GGGGGCCACAGCAGAAGCGUUCACGUCGCGGCCCCUGUCGGAUUCUGGUGAAUGUGCGAAUUCUGCUGU, for which the self-cleavage amounted to 0.656. As for GGGGGCCACAGCAGAAGCGUUCACGUCGCGGCCCCUGUCCGAUUCUGGUGAAUCUGCGAAUUCUGCUCU, the figure is 0.749; as for GGGGGCCACAGCAGAAGCGUUCACGUCGCGGCCCCUGUCCGAUUCUGGUGAAUCUGCGAAUUCUGCUUU, 0.806; as for GGGGGCCACAGCAGAAGCGUUCACGUCGCGGCCCCUGUCGGAUUGUGGUGAAUCUGCGAAUUCUGCUGU, 0.942. On to GGGGGCCACAGCAGAAGCGUUCACGUCGCGGCCCCUGUUAGAUUCUGGUGAAUCUGCGAAUUCUGGUGU, for which the self-cleavage was determined as 0.579. Turning to GGGGGCCACAGCAGAAGCGUUCACGUCGCGGCCCCUGUCCGAUUCUGGUGAAUGUGCGAAUUCUGCUGU, the self-cleavage came out at 0.323. For GGGGGCCACAGCAGAAGCGUUCACGUCGCGGCCCCUGUCCGAUUCUGGUGAAUCUGCGAAUUCGGCUGU, the self-cleavage was 0.403.

Take GGGGGCCACAGCAGAAGCGUUCACGUCGCGGCCCCUGUCCGAUUCUGGUGAAUCUGCGAAUUCCGCUGU: the self-cleavage came out at 0.357.

As to GGGGGCCACAGCAGAAGCGUUCACGUCGCGGCCCCUGUUAGAUUCUGGUGAAACUGCGAAUUCUGCUGU, the self-cleavage came out at 0.582. Then GGGGGCCACAGCAGAAGCGUUCACGUCGCGGCCCCUGUUAGAUUCUGGUGAAUCAGCGAAUUCUGCUGU, with 0.752; and GGGGGCCACAGCAGAAGCGUUCACGUCGCGGCCCCUGUUAGAUUCUGGUGAAUCCGCGAAUUCUGCUGU, with 0.752; and GGGGGCCACAGCAGAAGCGUUCACGUCGCGGCCCCUGUCGGCUUCUGGUGAAUCUGCGAAUUCUGCUGU, with 0.81.

As to GGGGGCCACAGCAGAAGCGUUCACGUCGCGGCCCCUGUUAGAUUCUGGUGAAUCUUCGAAUUCUGCUGU, the self-cleavage came out at 0.922.

On to GGGGGCCACAGCAGAAGCGUUCACGUCGCGGCCCCUGUCCGAUUCUGAUGAAUCUGCGAAUUCUGCUGU, for which the self-cleavage came to 0.882. Consider GGGGGCCACAGCAGAAGCGUUCACGUCGCGGCCCCUGUCCGAUUCUGCUGAAUCUGCGAAUUCUGCUGU, for which the self-cleavage came out at 0.716. Then GGGGGCCACAGCAGAAGCGUUCACGUCGCGGCCCCUGUUACAUUCUGGUGAAUCUGCGAAUUCUGCUGU, with 0.445.

For GGGGGCCACAGCAGAAGCGUUCACGUCGCGGCCCCUGUCCGAUUCUGGUGAAUCUGCGAAUUCUGCUGU, the self-cleavage turned out to be 0.702. In the case of GGGGGCCACAGCAGAAGCGUUCACGUCGCGGCCCCUGUCGGAUUCUGGUGAAUCUGCGAAUUCUGCUGU, the self-cleavage turned out to be 0.97.

In the case of GGGGGCCACAGCAGAAGCGUUCACGUCGCGGCCCCUGUUAGAUUCUGGUGAAUCUGCGUAUUCUGCUGU, the self-cleavage was determined as 0.527.

On to GGGGGCCACAGCAGAAGCGUUCACGUCGCGGCCCCUGUUAGAUUCUGCUGAAUCUGCGAAUUCUGCUGU, for which the self-cleavage turned out to be 0.939.

As for GGGGGCCACAGCAGAAGCGUUCACGUCGCGGCCCCUGUCCGAUUCUGGUGAAUCUGCGAAUUAUGCUGU, the self-cleavage turned out to be 0.321.

For the variant GGGGGCCACAGCAGAAGCGUUCACGUCGCGGCCCCUGUCCGAUUCUGGUGAAUCUGCGAAUUCUUCUGU, the self-cleavage turned out to be 0.354.

GGGGGCCACAGCAGAAGCGUUCACGUCGCGGCCCCUGUCCGAUUCUGGUGAAUCUGCAAAUUCUGCUGU: the self-cleavage was 0.659. As for GGGGGCCACAGCAGAAGCGUUCACGUCGCGGCCCCUGUUAGAUUCUGGUGAAUCUGCGAAUUCAGCUGU, the figure is 0.616; as for GGGGGCCACAGCAGAAGCGUUCACGUCGCGGCCCCUGUCCGAUUCUGGUGACUCUGCGAAUUCUGCUGU, 0.347; as for GGGGGCCACAGCAGAAGCGUUCACGUCGCGGCCCCUGUCCGAUUCUGGUGAUUCUGCGAAUUCUGCUGU, 0.365.

Take GGGGGCCACAGCAGAAGCGUUCACGUCGCGGCCCCUGUCCGAUUCUGGUGCAUCUGCGAAUUCUGCUGU: the self-cleavage worked out at 0.359. Regarding GGGGGCCACAGCAGAAGCGUUCACGUCGCGGCCCCUGUUAGAUUCAGGUGAAUCUGCGAAUUCUGCUGU, the self-cleavage is 0.934. Then GGGGGCCACAGCAGAAGCGUUCACGUCGCGGCCCCUGUCGGAUACUGGUGAAUCUGCGAAUUCUGCUGU, with 0.907.

As to GGGGGCCACAGCAGAAGCGUUCACGUCGCGGCCCCUGUUAGAUUCUGGUGAAUCUGCGAAUUCUGCUGG, the self-cleavage is 1.05. As for GGGGGCCACAGCAGAAGCGUUCACGUCGCGGCCCCUGUUAGAUUCUGGUGAAUCUGCGAAUUCUGCUGA, the figure is 0.94; as for GGGGGCCACAGCAGAAGCGUUCACGUCGCGGCCCCUGUUAGAUUCUGGUGAAUCUGCGAAGUCUGCUGU, 0.577. On to GGGGGCCACAGCAGAAGCGUUCACGUCGCGGCCCCUGUUAGAUUCUGGUGAAUCUGCGAAUUCUGCUAU, for which the self-cleavage stood at 0.99. As for GGGGGCCACAGCAGAAGCGUUCACGUCGCGGCCCCUGUCCGAUUCUGGUGAAUCUGCGAGUUCUGCUGU, the figure is 0.225. Turning to GGGGGCCACAGCAGAAGCGUUCACGUCGCGGCCCCUGUCCGAUUCUGGUGAAUCUGCGACUUCUGCUGU, the self-cleavage is 0.34. Then GGGGGCCACAGCAGAAGCGUUCACGUCGCGGCCCCUGUUAGAUUCUGGUGAAUCUGCGAAUUCUCCUGU, with 0.438; and GGGGGCCACAGCAGAAGCGUUCACGUCGCGGCCCCUGUCGGAUUCUGGUGGAUCUGCGAAUUCUGCUGU, with 0.979; and GGGGGCCACAGCAGAAGCGUUCACGUCGCGGCCCCUGUCCGAUUCUGGUGAAUCUGCGAAUUCUGCUGG, with 0.875. Then GGGGGCCACAGCAGAAGCGUUCACGUCGCGGCCCCUGUCGGAUUCUGGUGAAUCCGCGAAUUCUGCUGU, with 1; and GGGGGCCACAGCAGAAGCGUUCACGUCGCGGCCCCUGUCGGAUUCUGGUGAAUCAGCGAAUUCUGCUGU, with 0.858. Regarding GGGGGCCACAGCAGAAGCGUUCACGUCGCGGCCCCUGUCGGAUUCUGGUGAAUCGGCGAAUUCUGCUGU, the self-cleavage turned out to be 0.757. As for GGGGGCCACAGCAGAAGCGUUCACGUCGCGGCCCCUGUUAGAUUCUGGUAAAUCUGCGAAUUCUGCUGU, the figure is 0.91; as for GGGGGCCACAGCAGAAGCGUUCACGUCGCGGCCCCUGUCGGAUUCUGGUGAAUCUGCGAAUUCUUCUGU, 0.519. With GGGGGCCACAGCAGAAGCGUUCACGUCGCGGCCCCUGUCCGAUUCUGGUCAAUCUGCGAAUUCUGCUGU, the self-cleavage amounted to 0.424. Take GGGGGCCACAGCAGAAGCGUUCACGUCGCGGCCCCUGUCCGAUUCUGGUAAAUCUGCGAAUUCUGCUGU: the self-cleavage turned out to be 0.423. For the variant GGGGGCCACAGCAGAAGCGUUCACGUCGCGGCCCCUGUUAGAUUGUGGUGAAUCUGCGAAUUCUGCUGU, the self-cleavage stood at 0.74.

In the case of GGGGGCCACAGCAGAAGCGUUCACGUCGCGGCCCCUGUUAGAUUAUGGUGAAUCUGCGAAUUCUGCUGU, the self-cleavage is 0.759. As for GGGGGCCACAGCAGAAGCGUUCACGUCGCGGCCCCUGUCCGAUUCUGGUGAAUCUGUGAAUUCUGCUGU, the figure is 0.287; as for GGGGGCCACAGCAGAAGCGUUCACGUCGCGGCCCCUGUCGGAUUCUCGUGAAUCUGCGAAUUCUGCUGU, 1.

On to GGGGGCCACAGCAGAAGCGUUCACGUCGCGGCCCCUGUCGGAUUCUGGUGAAUCUGCGUAUUCUGCUGU, for which the self-cleavage was found to be 0.691.

As to GGGGGCCACAGCAGAAGCGUUCACGUCGCGGCCCCUGUCCGAUUCUGGUGAAUCUGCGAAUUCUGCCGU, the self-cleavage came out at 0.539. As for GGGGGCCACAGCAGAAGCGUUCACGUCGCGGCCCCUGUCGGAUUCUGGUGAAUCUGCGAAUUCUGCUUU, the figure is 0.987; as for GGGGGCCACAGCAGAAGCGUUCACGUCGCGGCCCCUGUCGGAUUCUGGUGAAUCUGCGAAUUCUGGUGU, 0.67.

On to GGGGGCCACAGCAGAAGCGUUCACGUCGCGGCCCCUGUUAGAUGCUGGUGAAUCUGCGAAUUCUGCUGU, for which the self-cleavage was found to be 0.693. Then GGGGGCCACAGCAGAAGCGUUCACGUCGCGGCCCCUGUUAGAUCCUGGUGAAUCUGCGAAUUCUGCUGU, with 0.514; and GGGGGCCACAGCAGAAGCGUUCACGUCGCGGCCCCUGUCCGAUCCUGGUGAAUCUGCGAAUUCUGCUGU, with 0.368. Then GGGGGCCACAGCAGAAGCGUUCACGUCGCGGCCCCUGUCCGAUGCUGGUGAAUCUGCGAAUUCUGCUGU, with 0.419. In the case of GGGGGCCACAGCAGAAGCGUUCACGUCGCGGCCCCUGUCCGAUACUGGUGAAUCUGCGAAUUCUGCUGU, the self-cleavage turned out to be 0.417. Then GGGGGCCACAGCAGAAGCGUUCACGUCGCGGCCCCUGUCGGAUUCUGGUGAAUCUGAGAAUUCUGCUGU, with 0.34. On to GGGGGCCACAGCAGAAGCGUUCACGUCGCGGCCCCUGUCGGAUUCUGGUGAAUCUGUGAAUUCUGCUGU, for which the self-cleavage worked out at 0.311.

Regarding GGGGGCCACAGCAGAAGCGUUCACGUCGCGGCCCCUGUCCGAUUCUGGUGAAUCUGCGUAUUCUGCUGU, the self-cleavage came out at 0.381. Then GGGGGCCACAGCAGAAGCGUUCACGUCGCGGCCCCUGUCCGAUUCUGGUGAAUCGGCGAAUUCUGCUGU, with 0.951; and GGGGGCCACAGCAGAAGCGUUCACGUCGCGGCCCCUGUUAGAUUCUUGUGAAUCUGCGAAUUCUGCUGU, with 0.973. Then GGGGGCCACAGCAGAAGCGUUCACGUCGCGGCCCCUGUUAGAUUCUAGUGAAUCUGCGAAUUCUGCUGU, with 0.948; and GGGGGCCACAGCAGAAGCGUUCACGUCGCGGCCCCUGUCGGAUUCUGGUGAAUCUGCGAAUGCUGCUGU, with 0.858; and GGGGGCCACAGCAGAAGCGUUCACGUCGCGGCCCCUGUCGGAUUCUGGUGAAUCUGCGAAUACUGCUGU, with 0.837. As for GGGGGCCACAGCAGAAGCGUUCACGUCGCGGCCCCUGUUAGAUUCUGGUGAAUCUGGGAAUUCUGCUGU, the figure is 0.403; as for GGGGGCCACAGCAGAAGCGUUCACGUCGCGGCCCCUGUUAGAUUCUGGUGAAUCUGAGAAUUCUGCUGU, 0.34.

On to GGGGGCCACAGCAGAAGCGUUCACGUCGCGGCCCCUGUCCUAUUCUGGUGAAUCUGCGAAUUCUGCUGU, for which the self-cleavage came out at 0.22. For GGGGGCCACAGCAGAAGCGUUCACGUCGCGGCCCCUGUCGGAUUCUGGUGAAUCUCCGAAUUCUGCUGU, the self-cleavage came to 0.779.
